The values that follow come from patent US20210292414A1 (H LUNDBECK A S, published 2021).

Test in all cases: BLI (Octet384RED)
Experiment [1] concerns the target T1, hBack.
T1 chimeric human/tetraodon Sortilin extracellular region, BAP tag: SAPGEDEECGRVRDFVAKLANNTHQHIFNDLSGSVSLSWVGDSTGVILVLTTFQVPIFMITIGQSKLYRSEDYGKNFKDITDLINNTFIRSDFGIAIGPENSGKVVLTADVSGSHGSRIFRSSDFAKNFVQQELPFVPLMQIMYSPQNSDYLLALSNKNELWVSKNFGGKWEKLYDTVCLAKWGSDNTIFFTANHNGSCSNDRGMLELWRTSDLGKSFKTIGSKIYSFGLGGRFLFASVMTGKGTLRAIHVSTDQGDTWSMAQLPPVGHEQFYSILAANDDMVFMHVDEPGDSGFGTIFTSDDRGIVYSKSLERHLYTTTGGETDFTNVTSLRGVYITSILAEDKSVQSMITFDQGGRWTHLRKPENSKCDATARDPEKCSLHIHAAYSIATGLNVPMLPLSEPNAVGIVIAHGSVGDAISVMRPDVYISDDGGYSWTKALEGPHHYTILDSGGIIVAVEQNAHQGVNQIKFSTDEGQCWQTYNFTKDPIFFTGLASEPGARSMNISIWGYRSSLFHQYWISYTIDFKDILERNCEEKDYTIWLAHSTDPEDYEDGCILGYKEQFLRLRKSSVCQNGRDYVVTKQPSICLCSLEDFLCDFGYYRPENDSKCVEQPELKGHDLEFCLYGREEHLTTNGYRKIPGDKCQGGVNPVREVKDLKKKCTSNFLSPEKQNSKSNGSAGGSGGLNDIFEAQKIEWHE

In experiment [2] the target is T2, Sortilin SORTECDBAP_hB01-05 (human/tetraodon chimera).
T2 construct: Shuffle construct: chimeric human/tetraodon Sortilin ECD with BAP tag
T2 chain: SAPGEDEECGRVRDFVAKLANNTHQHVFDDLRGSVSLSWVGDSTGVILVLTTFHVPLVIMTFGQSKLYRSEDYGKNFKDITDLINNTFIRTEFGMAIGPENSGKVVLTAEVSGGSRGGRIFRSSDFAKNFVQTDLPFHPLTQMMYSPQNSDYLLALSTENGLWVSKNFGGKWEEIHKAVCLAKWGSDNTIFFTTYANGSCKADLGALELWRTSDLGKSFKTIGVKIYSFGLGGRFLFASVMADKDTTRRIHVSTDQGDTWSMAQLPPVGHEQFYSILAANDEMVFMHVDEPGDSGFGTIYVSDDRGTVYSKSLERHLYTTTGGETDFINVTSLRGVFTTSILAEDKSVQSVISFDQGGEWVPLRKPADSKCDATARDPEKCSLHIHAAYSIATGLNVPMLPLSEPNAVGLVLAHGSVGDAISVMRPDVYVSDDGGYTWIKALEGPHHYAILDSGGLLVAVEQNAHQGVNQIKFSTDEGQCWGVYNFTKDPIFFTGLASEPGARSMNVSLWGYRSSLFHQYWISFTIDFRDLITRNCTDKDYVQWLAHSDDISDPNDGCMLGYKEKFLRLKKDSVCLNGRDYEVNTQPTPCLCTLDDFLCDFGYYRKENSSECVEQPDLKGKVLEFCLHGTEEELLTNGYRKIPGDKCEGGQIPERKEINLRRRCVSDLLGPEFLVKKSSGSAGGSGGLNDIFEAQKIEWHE

Experiment [3] addresses T3, Sortilin SORTECDBAP_tetra (tetraodon).
T3 construct: Fully tetraodon Sortilin ECD with BAP tag; also called tetraodon; tetraodon Sortilin
T3 chain: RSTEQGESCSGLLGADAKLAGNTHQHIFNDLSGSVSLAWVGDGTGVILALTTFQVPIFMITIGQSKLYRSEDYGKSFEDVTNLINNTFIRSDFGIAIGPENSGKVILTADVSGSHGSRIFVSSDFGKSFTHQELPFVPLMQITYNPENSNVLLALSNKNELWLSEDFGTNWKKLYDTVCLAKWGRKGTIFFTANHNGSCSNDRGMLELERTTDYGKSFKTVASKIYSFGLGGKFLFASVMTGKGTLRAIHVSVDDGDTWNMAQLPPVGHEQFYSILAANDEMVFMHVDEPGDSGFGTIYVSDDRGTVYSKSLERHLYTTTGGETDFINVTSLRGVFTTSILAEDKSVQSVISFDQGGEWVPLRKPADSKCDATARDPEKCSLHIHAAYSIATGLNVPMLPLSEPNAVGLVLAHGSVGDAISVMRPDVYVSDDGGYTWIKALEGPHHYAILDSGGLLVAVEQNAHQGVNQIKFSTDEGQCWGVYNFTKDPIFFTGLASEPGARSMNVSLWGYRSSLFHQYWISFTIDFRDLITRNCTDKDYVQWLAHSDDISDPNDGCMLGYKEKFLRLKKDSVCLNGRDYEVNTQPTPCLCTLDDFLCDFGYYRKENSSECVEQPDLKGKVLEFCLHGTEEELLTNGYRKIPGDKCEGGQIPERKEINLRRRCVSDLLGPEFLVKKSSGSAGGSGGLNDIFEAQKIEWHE

Experiment [4] has as its target T4, Sortilin SORTECDBAP_hB12390 (human/tetraodon chimera).
T4 construct: Shuffle construct: chimeric human/tetraodon Sortilin ECD with BAP tag
T4 chain: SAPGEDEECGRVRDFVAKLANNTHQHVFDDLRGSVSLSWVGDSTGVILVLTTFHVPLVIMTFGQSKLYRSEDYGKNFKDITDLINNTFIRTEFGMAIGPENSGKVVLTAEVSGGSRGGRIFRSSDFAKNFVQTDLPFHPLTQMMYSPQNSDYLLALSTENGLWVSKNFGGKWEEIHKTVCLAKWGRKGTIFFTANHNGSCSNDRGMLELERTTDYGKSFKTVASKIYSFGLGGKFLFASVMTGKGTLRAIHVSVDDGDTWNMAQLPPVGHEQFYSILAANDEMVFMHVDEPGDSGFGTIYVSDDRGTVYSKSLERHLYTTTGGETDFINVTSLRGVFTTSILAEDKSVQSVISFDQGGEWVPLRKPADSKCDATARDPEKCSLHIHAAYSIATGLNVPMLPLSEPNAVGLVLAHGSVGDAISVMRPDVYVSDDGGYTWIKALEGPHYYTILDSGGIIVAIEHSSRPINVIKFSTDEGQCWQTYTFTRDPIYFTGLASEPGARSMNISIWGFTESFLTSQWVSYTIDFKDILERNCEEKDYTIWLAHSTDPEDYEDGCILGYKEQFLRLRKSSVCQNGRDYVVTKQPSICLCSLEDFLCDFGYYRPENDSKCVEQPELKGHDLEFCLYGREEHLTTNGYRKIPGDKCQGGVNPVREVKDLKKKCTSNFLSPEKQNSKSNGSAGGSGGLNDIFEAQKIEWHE

Experiment [5] addresses T1, hBack.
Experiment [6] addresses T2, Sortilin SORTECDBAP_hB01-05.
The target of experiment [7] is T3, Sortilin SORTECDBAP_tetra.
For experiment [8], the target named is T4, Sortilin SORTECDBAP_hB12390.

By EC50 is commonly meant the concentration at which the effect is half-maximal. A higher EC50 goes with weaker potency.

Read-outs that look alike come from different tables or passages of the source.

B1: Antibody 6003-936 (antibody, human IgG1, V domains shown)
VH: EVQLVQSGAEVKKPGESLKISCKGSGYIFTSFWIGWVRQMPGKGLEWMGIIYPGDSDTRYSPSFQGQVTISADKSISTAYLQWSSLKASDTAMYYCARHSRGSFWYGAFQHWGQGTLVTVSS
VL: EIVLTQSPDFQSVTPKEKVTITCRASQSIGSSLHWYQQKPDQSPKLLIKYASQSFSGVPSRFSGSGSGTDFTLTINSLEAEDAAAYYCHQSSSLPHTFGPGTKVDIK
As to B1, the EC50 with hBack [1] worked out at 2.62 ng/mL; in experiment [4], 11.4 ng/mL. Also, the binding result in experiment [2] and in experiment [3] was “no binding” each time.

B2: Antibody 6003-471 (antibody, V domains shown)
VH: QVQLVQSGAEVKKPGSSVKVSCKASGGTFSNYAISWVRQAPGQGLEWMGRIIPIFGIANYAQKFQGRVTITADKSTSTAYMELSSLRSEDTAVYYCARDRRGFSGYEVFDYWGQGTLVTVSS
VL: DIQMTQSPSSLSASVGDRVTITCRASQGISSWLAWYQQKPEKAPKSLIYATSSLQSGVPSRFSGSGSGTDFTLTISSLQPEDFATYYCQQYNSYPITFGQGTRLEIK
For B2, the values for the EC50 (with hBack [5]; in experiment [8]) were 2.54 ng/mL and 3.16 ng/mL, respectively. Moreover, the binding result in experiment [6] and in experiment [7] was “no binding” in each case.

B3: Antibody 6003-423 (antibody, human IgG1, V domains shown)
VH: EVQLLESGGGLVQPGGSLRLSCEASGFTFRSYVMSWVRQAPGKGLEWVSTISGGGGNTNYTDSVKGRFTISRDNSKNTLYLQMNSLRAEDTAVYYCAKNWGSGFDYWGQGTLVTVSS
VL: EIVLTQSPATLSLSPGERATLSCRASQSVSSYLAWYQQKPGQAPRLLIYDASNRATGIPARFSGSGSGTDFTLTISSLEPEDFAVYYCQQRSNWLIFTFGPGTKVDIK
On to B3, for which the EC50 with hBack [5] worked out at 4 ng/mL; in experiment [8], 3.55 ng/mL. Further, the binding result in experiment [6] and in experiment [7] was “no binding” each time.
